Experimental data taken from IntAct's records for PubMed 26344566.

Target: PEX5, P50542-3

- effect of a mutation on the interaction: decreasing interaction strength
Substance: Serine-protein kinase ATM (Homo sapiens), Q13315 R3047Q
